Molecular target: ApoHsp (cage protein formed by the fusion protein of Hsp, DEVD motif and histidine polymer, labelled with Cy5.5 and BHQ3)

B1: caspase-9 (NCBI accession no: NP-001220.2), human, purchased from R&D Systems (protein)
chain: MDEADRRLLRRCRLRLVEELQVDQLWDALLSRELFRPHMIEDIQRAGSGSRRDQARQLIIDLETRGSQALPLFISCLEDTGQDMLASFLRTNRQAAKLSKPTLENLTPVVLRPEIRKPEVLRPETPRPVDIGSGGFGDVGALESLRGNADLAYILSMEPCGHCLIINNVNFCRESGLRTRTGSNIDCEKLRRRFSSLHFMVEVKGDLTAKKMVLALLELAQQDHGALDCCVVVILSHGCQASHLQFPGAVYGTDGCPVSVEKIVNIFNGTSCPSLGGKPKLFFIQACGGEQKDHGFEVASTSPEDESPGSNPEPDATPFQEGLRTFDQLDAISSLPTPSDIFVSYSTFPGFVSWRDPKSGSWYVETLDDIFEQWAHSEDLQSLLLRVANAVSVKGIYKQMPGCFNFLRKKLFFKTS
How did the “fluorescence signal (Cy5.5 dequenching after cleavage, 96-well plate, 37 C, 2 hours)” value turn out when B1 was run?
Its value is “fluorescence did not occur in reactions with another two capases at all”.

B2: caspase-8 (NCBI accession no: NP-001073593.1), human, purchased from R&D Systems (protein)
chain: SESQTLDKVYQMKSKPRGYCLIINNHNFAKAREKVPKLHSIRDRNGTHLDAGALTTTFEELHFEIKPHDDCTVEQIYEILKIYQLMDHSNMDCFICCILSHGDKGIIYGTDGQEAPIYELTSQFTGLKCPSLAGKPKVFFIQACQGDNYQKGIPVETDSEEQPYLEMDLSSPQTRYIPDEADFLLGMATVNNCVSYRNPAEGTWYIQSLCQSLRERCPRGDDILTILTEVNYEVSNKDDKKNMGKQMPQPTFTLRKKLVFPSD
With B2 as the protein, how does the “fluorescence signal (Cy5.5 dequenching after cleavage, 96-well plate, 37 C, 2 hours)” value read?
The value was “fluorescence did not occur in reactions with another two capases at all”.

Source: patent US20130230562
